From IntAct's records for PubMed 29039417

B1: Protein PTHB1 (Homo sapiens), Q3SYG4 (parent)
chain: MSLFKARDWWSTILGDKEEFDQGCLCLANVDNSGNGQDKIIVGSFMGYLRIFSPHPAKTGDGAQAEDLLLEVDLRDPVLQVEVGKFVSGTEMLHLAVLHSRKLCVYSVSGTLGNVEHGNQCQMKLMYEHNLQRTACNMTYGSFGGVKGRDLICIQSMDGMLMVFEQESYAFGRFLPGFLLPGPLAYSSRTDSFLTVSSCQQVESYKYQVLAFATDADKRQETEQQKLGSGKRLVVDWTLNIGEQALDICIVSFNQSASSVFVLGERNFFCLKDNGQIRFMKKLDWSPSCFLPYCSVSEGTINTLIGNHNNMLHIYQDVTLKWATQLPHIPVAVRVGCLHDLKGVIVTLSDDGHLQCSYLGTDPSLFQAPNVQSRELNYDELDVEMKELQKIIKDVNKSQGVWPMTEREDDLNVSVVVSPNFDSVSQATDVEVGTDLVPSVTVKVTLQNRVILQKAKLSVYVQPPLELTCDQFTFEFMTPDLTRTVSFSVYLKRSYTPSELEGNAVVSYSRPTDRNPDGIPRVIQCKFRLPLKLICLPGQPSKTASHKITIDTNKSPVSLLSLFPGFASQSDDDQVNVMGFHFLGGARITVLASKTSQRYRIQSEQFEDLWLITNELILRLQEYFEKQGVKDFACSFSGSIPLQEYFELIDHHFELRINGEKLEELLSERAVQFRAIQRRLLARFKDKTPAPLQHLDTLLDGTYKQVIALADAVEENQGNLFQSFTRLKSATHLVILLIALWQKLSADQVAILEAAFLPLQEDTQELGWEETVDAAISHLLKTCLSKSSKEQALNLNSQLNIPKDTSQLKKHITLLCDRLSKGGRLCLSTDAAAPQTMVMPGGCTTIPESDLEERSVEQDSTELFTNHRHLTAETPRPEVSPLQGVSE
partner: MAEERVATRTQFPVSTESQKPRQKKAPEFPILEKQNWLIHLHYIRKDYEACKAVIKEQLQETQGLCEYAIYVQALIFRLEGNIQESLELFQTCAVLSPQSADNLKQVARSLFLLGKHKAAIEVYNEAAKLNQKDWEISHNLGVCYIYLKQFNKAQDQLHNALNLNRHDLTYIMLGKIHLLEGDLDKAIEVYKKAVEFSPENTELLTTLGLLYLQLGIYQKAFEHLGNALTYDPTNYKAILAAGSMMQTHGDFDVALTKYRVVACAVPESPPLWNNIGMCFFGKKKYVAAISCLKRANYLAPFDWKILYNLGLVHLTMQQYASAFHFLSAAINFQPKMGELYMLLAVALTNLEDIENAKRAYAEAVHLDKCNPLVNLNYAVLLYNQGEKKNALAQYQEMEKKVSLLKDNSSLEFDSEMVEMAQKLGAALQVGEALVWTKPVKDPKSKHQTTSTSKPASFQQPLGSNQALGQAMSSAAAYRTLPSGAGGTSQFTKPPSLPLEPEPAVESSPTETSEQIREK
B2: Protein PTHB1 (Homo sapiens), Q3SYG4 (parent)
chain: B1 chain
partner: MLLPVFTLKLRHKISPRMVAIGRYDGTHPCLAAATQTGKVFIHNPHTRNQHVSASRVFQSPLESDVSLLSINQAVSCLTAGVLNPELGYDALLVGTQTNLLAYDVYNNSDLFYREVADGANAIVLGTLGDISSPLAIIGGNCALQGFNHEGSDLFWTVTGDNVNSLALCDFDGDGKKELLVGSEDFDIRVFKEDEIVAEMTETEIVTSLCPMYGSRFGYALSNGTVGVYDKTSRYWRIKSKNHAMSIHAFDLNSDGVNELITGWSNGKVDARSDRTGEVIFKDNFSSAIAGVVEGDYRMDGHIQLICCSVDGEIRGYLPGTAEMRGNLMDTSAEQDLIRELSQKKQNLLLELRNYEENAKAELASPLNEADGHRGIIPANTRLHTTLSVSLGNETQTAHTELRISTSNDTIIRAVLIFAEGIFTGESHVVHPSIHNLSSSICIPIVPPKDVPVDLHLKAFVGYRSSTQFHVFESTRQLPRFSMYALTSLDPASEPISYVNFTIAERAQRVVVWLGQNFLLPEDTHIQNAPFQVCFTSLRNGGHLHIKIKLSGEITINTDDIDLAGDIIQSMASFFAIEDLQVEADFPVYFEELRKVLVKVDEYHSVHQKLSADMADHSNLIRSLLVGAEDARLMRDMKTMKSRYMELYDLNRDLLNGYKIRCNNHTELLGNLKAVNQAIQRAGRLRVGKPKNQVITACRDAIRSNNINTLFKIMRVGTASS

Variants of: B1
Settings: with bbs4_human BBS4, Q96RK4

effect of a mutation on the interaction	Variant
with no effect	D409E
with no effect	D409A
with no effect	D409K
with no effect	V417K
with no effect	V417E
with no effect	V417A
with no effect	R407A
with no effect	R407E
with no effect	R407K
with no effect	D410K
with no effect	D410A
with no effect	D410E
with no effect	L411E
with no effect	L411K
with no effect	L411A
with no effect	P419A
with no effect	P419E
with no effect	E406K
with no effect	E406A
with no effect	E408K
with no effect	E408A

effect of a mutation on the interaction	Variant
with no effect	V415K
with no effect	V415A
with no effect	V415E
with no effect	N412E
with no effect	N412A
with no effect	N412K
with no effect	T405K
with no effect	T405A
with no effect	T405E
with no effect	V413E
with no effect	V413A
with no effect	V413K
with no effect	S418E
with no effect	S418A
with no effect	S418K
with no effect	S414E
with no effect	S414K
with no effect	S414A
with no effect	V416A
with no effect	V416K
with no effect	V416E

Variants of: B2
Settings: with bbs2_human BBS2, Q9BXC9

Variant	effect of a mutation on the interaction
N614K	with no effect
L457K	with no effect
C469E	with no effect
G584K	with no effect
G584A	with no effect
E625K	with no effect
S498K	with no effect
Q627K	with no effect
S423A	with no effect
P540A	with no effect
R510K	with no effect
V590E	with no effect
N553A	with no effect
G585E	with no effect
L452K	with no effect
S555E	with no effect
L562E	with no effect
Q602A	with no effect
E644K	with no effect

Variant	effect of a mutation on the interaction
E644A	with no effect
F580K	with no effect
E408A	with no effect
V461K	with no effect
L500K	with no effect
D422E	with no effect
F636E	with no effect
L481E	with no effect
R600G	disrupting interaction strength
M578A	with no effect
I451A	with no effect
T428A	with no effect
G638K	with no effect
I588K	with no effect
I588E	with no effect
D551E	with no effect
F563A	with no effect
L491E	with no effect
D571K	with no effect

Variant	effect of a mutation on the interaction
Q462E	with no effect
A633V	disrupting interaction strength
G628E	disrupting interaction strength
A427E	with no effect
P463K	with no effect
G502A	with no effect
T468E	with no effect
I617E	with no effect
Q453A	with no effect
T405A	with no effect
Q605A	with no effect
L559E	with no effect
K456A	with no effect
D608A	with no effect
R528E	with no effect
S635E	with no effect
I550K	with no effect
T589A	with no effect

The next lines start with the values.

effect of a mutation on the interaction	Variant
with no effect	L699A
disrupting interaction strength	R824W
with no effect	T871E
with no effect	M839A
disrupting interaction strength	T688A
with no effect	L737K
with no effect	L737A
with no effect	K781A
with no effect	H651A
with no effect	D762K
with no effect	D762E
with no effect	L799K
with no effect	L799A
with no effect	Q717E
with no effect	P691E
with no effect	L795K
with no effect	Q764A
with no effect	Q764E
with no effect	D700A
with no effect	T829A
with no effect	A708K

effect of a mutation on the interaction	Variant
with no effect	P847K
with no effect	E668K
with no effect	L825E
disrupting interaction strength	Q677Y
disrupting interaction strength	L827A
with no effect	I846E
with no effect	C843A
with no effect	A750K
with no effect	S667A
with no effect	Y703E
with no effect	E715A
with no effect	Q807A
with no effect	Q807E
with no effect	N719E
with no effect	E862A
with no effect	I649E
with no effect	L720E
with no effect	L720K
with no effect	T845A
disrupting interaction strength	W741S
with no effect	E753A

effect of a mutation on the interaction	Variant
with no effect	F684K
with no effect	Q791K
with no effect	S828K
with no effect	L759A
with no effect	L759K
with no effect	F646K
with no effect	E857A
with no effect	R876K
with no effect	P758E
with no effect	D686E
with no effect	S788A
with no effect	S788E
with no effect	L692E
with no effect	L815A
with no effect	T865E
disrupting interaction strength	A670T
disrupting interaction strength	T805I
with no effect	L666A
with no effect	I812E
with no effect	A739E
with no effect	N796A

effect of a mutation on the interaction	Variant
with no effect	N796K
with no effect	L681E
with no effect	R679K
disrupting interaction strength	R679G
with no effect	D830A
with no effect	D830K
with no effect	S849E
with no effect	S729A
with no effect	E765A
with no effect	L695E
with no effect	A682K
with no effect	E714A
with no effect	T763E
with no effect	Q858K
with no effect	Q858A
with no effect	S745E
with no effect	V671E
with no effect	D859A
with no effect	S797A
with no effect	L882K
disrupting interaction strength	A775T
